From the supplement of paper PMC10724198
± gives the standard deviation of the averaged measurements.

Test system: Saccharomyces cerevisiae
Assay: protein stability index of tFT-peptide fusion (C-terminal peptide) (PSI (0-1 scale)); higher = more stable (slower turnover)
Conditions: genetic background: wild type; temperature: 30 C
Method: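 Multiplexed protein stability (MPS) profiling in S. cerevisiae. Random 12-aa peptides (tFT-X12 library) are fused to the C-terminus of a sfGFP-mCherry tandem fluorescent timer, after mCherry and a GGGS linker. Cells are FACS-sorted into 8 mCherry/sfGFP bins and deep-sequenced. The protein stability index (PSI) is the read-weighted bin average, scaled from 0 (unstable) to 1 (stable). Only peptides with >10 reads are reported; cells were grown at 30 °C in SC-His with glucose.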
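Further: PSI is a weighted mean of sequencing reads over stability bins, variants kept only with over 10 reads, mCherry proximal and sfGFP distal, peptide attached via GGGS linker.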

Row | Sequence | protein stability index
1 | GGWWSCAWGVRG | 0.627 ± 0.065
2 | GHEKAGPSIGFL | 0.644 ± 0.027
3 | GHFWVFGIPFFR | 0.6547 ± 0.0017
4 | GHVCNSIVPFRV | 0.624 ± 0.022
5 | GHVPIWPFLSLS | 0.6664 ± 0.0042
6 | GIASKCFWFVCG | 0.645 ± 0.018
7 | GICDAVLFTMLV | 0.682 ± 0.068
8 | GIKQEMKYQVGK | 0.665 ± 0.07
9 | GILRGSKKVDPP | 0.622 ± 0.029
10 | GILYFPAGHHAG | 0.627 ± 0.035
11 | GIPWSVLLSSYW | 0.713 ± 0.033
12 | GIQAGGGGGKGG | 0.676 ± 0.022
13 | GIQIRIDNQKKN | 0.67 ± 0.025
14 | GIVFVFGGGLAL | 0.702 ± 0.078
15 | GIVVTCLRSRWD | 0.647 ± 0.013
16 | GKADRRKSEHVR | 0.733 ± 0.047
17 | GKCFSFSFNCLH | 0.521 ± 0.023
18 | GKFVEVVRFWSV | 0.721 ± 0.074
19 | GKGREGVGEVGK | 0.6753 ± 0.0043
20 | GKGRIWTGRKGC | 0.68 ± 0.098
21 | GKGYVFRTLSHL | 0.732 ± 0.082
22 | GKIGAIRVVGWA | 0.662 ± 0.02
23 | GKLLPCVRGRGL | 0.665 ± 0.024
24 | GKNGKNMDKDNK | 0.676 ± 0.019
25 | GKNRKKEEHAKR | 0.702 ± 0.12

Row | Sequence | protein stability index
26 | GKRGKKVKKKSK | 0.621 ± 0.016
27 | GKRKEAVLRMMI | 0.6213 ± 0.0017
28 | GKSLIKRYANKI | 0.7436 ± 0.0019
29 | GKSREKEKESRE | 0.658 ± 0.032
30 | GKTNKALDRISI | 0.679 ± 0.038
31 | GKYKKGNSIAIE | 0.598 ± 0.012
32 | GLAPYRPVITFS | 0.675 ± 0.002
33 | GLCGVVFGGRGE | 0.657 ± 0.064
34 | GLCPCGDAISTR | 0.682 ± 0.053
35 | GLEGSVRRVRGS | 0.701 ± 0.011
36 | GLESVGRVSLRG | 0.657 ± 0.0094
37 | GLFFISLFFPFL | 0.575 ± 0.0096
38 | GLFVSLRGLSLS | 0.71 ± 0.044
39 | GLGRRRGVGGVR | 0.709 ± 0.0027
40 | GLGVCGTGIGGV | 0.656 ± 0.014
41 | GLIVGLLGVSGF | 0.591 ± 0.0062
42 | GLKTLQTCRIIR | 0.691 ± 0.054
43 | GLLENLKKRSRG | 0.691 ± 0.07
44 | GLLRGHVFVGRG | 0.692 ± 0.029
45 | GLLSLPPRLPFL | 0.672 ± 0.073
46 | GLLTFPPNRSGG | 0.67 ± 0.05
47 | GLMRDKEMRMPK | 0.68 ± 0.036
48 | GLNVLVWALLSQ | 0.548 ± 0.032
49 | GLPCLSPPLAPS | 0.683 ± 0.034
50 | GLPRCMDWSIRR | 0.6764 ± 0.00099

Row | Sequence | protein stability index
51 | GLPTPSNVPPFG | 0.703 ± 0.01
52 | GLRQVPGDLAEG | 0.699 ± 0.039
53 | GLSGVVGSRCHC | 0.713 ± 0.02
54 | GLSLFPVTFFLR | 0.585 ± 0.02
55 | GLSPDFRFMGVR | 0.667 ± 0.029
56 | GLSSLVLRFFLP | 0.663 ± 0.025
57 | GLSTPPSPALLR | 0.748 ± 0.013
58 | GLTWFRQARAAL | 0.718 ± 0.039
59 | GLVDARRRWCFS | 0.62 ± 0.0073
60 | GLVHGSWGCQCD | 0.714 ± 0.015
61 | GLVRGGGGTVGG | 0.81 ± 0.22
62 | GLVSSDVGFRGY | 0.73 ± 0.019
63 | GLYHGFCLSGCL | 0.678 ± 0.04
64 | GMGLWCLSGLFP | 0.7131 ± 0.0067
65 | GMKDKSVRTIKK | 0.721 ± 0.0035
66 | GMLGVGGYGGLW | 0.717 ± 0.078
67 | GNAKKRKNKEKK | 0.651 ± 0.09
68 | GNCVESCMWQRE | 0.704 ± 0.05
69 | GNKAPHTRTIGG | 0.706 ± 0.028
70 | GPALCPVWATYG | 0.591 ± 0.0086
71 | GPGGGGGLWVRV | 0.617 ± 0.016
72 | GPGTSSSGLVFT | 0.692 ± 0.029
73 | GPKTFIRSTKEI | 0.697 ± 0.03
74 | GPPLSPPLLLLL | 0.681 ± 0.046
75 | GPPPLPSPPSHP | 0.753 ± 0.1

Row | Sequence | protein stability index
76 | GPPPPPRPPLPP | 0.665 ± 0.049
77 | GPPTASPLVAPA | 0.621 ± 0.02
78 | GPRGWRASVWAG | 0.687 ± 0.07
79 | GPRVFKPRTTHG | 0.663 ± 0.025
80 | GPSFVVTVGNGG | 0.686 ± 0.02
81 | GPSVPPLPRHEL | 0.728 ± 0.051
82 | GPSVRSTARGPG | 0.724 ± 0.12
83 | GPVCVVSGVFTV | 0.665 ± 0.072
84 | GPYDLPCLPLSA | 0.633 ± 0.014
85 | GQAGGRVEVREP | 0.6887 ± 0.005
86 | GQCQERRKGGCA | 0.577 ± 0.0063
87 | GQCRFVEDVYVT | 0.685 ± 0.009
88 | GQMYTLATSAVV | 0.602 ± 0.076
89 | GQRRDSSSEVWG | 0.67 ± 0.017
90 | GQRWADGGFVEV | 0.783 ± 0.1
91 | GQVTAHFRLARV | 0.697 ± 0.049
92 | GRAGGDGVGGGV | 0.6382 ± 0.0024
93 | GRCHRFQWSVRR | 0.681 ± 0.015
94 | GRDKGNLQSLRR | 0.732 ± 0.014
95 | GRGGLGGWEWDR | 0.712 ± 0.034
96 | GRGGLGWWEWDR | 0.7462 ± 0.0067
97 | GRGGVGWGEWDR | 0.729 ± 0.056
98 | GRGGWVHRRIGA | 0.676 ± 0.035
